The test system of the series is NC(=O)N[C@H]1NC(=O)NC1=O. Briefly: purified protein. As to conditions: free enzyme, 70 nM monomer, 20 mM potassium phosphate, pH 7.4, 37 °C, racemic allantoin added, table states (S)-allantoin, unclear whether concentration counts racemate or S form.

The values that follow come from paper PMC6983136.

Take “puuE (allantoinase from Pseudomonas fluorescens) (Pseudomonas fluorescens Pf0-1)”: the Km is 1350 ± 430 µM, the kcat turned out to be 102 s⁻¹ and the kcat/Km was 75200 M⁻¹ s⁻¹.
